Data: patent publication US20220144940A1 (VIELA BIO, published 2022)
“And” between values parts separate entries of the source, which are not always exact repeats. Identical values can stand only once. Blank lines part the entries; values can stand above or below the binder they belong to.

Tests used:
[1] = molecular target: T1, HA-tagged human ILT7 on CT-550 cells (human, UniProt P59901 24-499); test: cell-based or functional assay
cynomolgus ILT7 [2] = molecular target: T2, cynomolgus ILT7 (cynomolgus, UniProt P59901 24-499 (human entry)); test: cell-based or functional assay
[3] = molecular target: T1, HA-tagged human ILT7 on CT-550 cells; test: flow cytometry on CT-550 cells
Procedure: (§1) Binding of anti-ILT7 variants and isotype controls on human and cynomolgus ILT7 was assessed by flow cytometry analysis using CT-550 and cynoILT7 CT-125 cells respectively. CT-125 cells were used as control. Cells were resuspended in Blocking Buffer (PBS supplemented with 10% FBS) at a concentration of 5 million cells per mL and transferred into a round-bottom 96-well plates (BD Falcon™ Clear Microtest Plate, BD Biosciences) at 100 μL per well. Anti-ILT7 variants and control antibodies were added onto the cells for 30 min at 4° C. on a plate shaker. Cells were washed three times with PBS and resuspended in Blocking Buffer (100 μL/well). Human IgG binding on cell surface was detected using a secondary anti-human IgG antibody conjugated to DyLight 649 (1 in 1000 dilution). Cells were incubated in the dark for 30 min at 4° C. on a plate shaker. Cells were washed three times with PBS and surface fluorescence was acquired using LSRII Flow Cytometry System and FACSDiva Software (both from BD Biosciences).
(§2) In order to determine the binding EC50 of ILT70019, ILT70028, ILT70052, ILT70076, ILT70080, ILT70083, ILT70089, ILT70100, ILT70137, ILT70142 and ILT70144 on cells expressing human ILT7, the candidates were screened for binding on CT-550 cells by flow cytometry. ILT70080 (EC₅₀=0.28 nM), ILT70083 (EC₅₀=0.37 nM), ILT70137 (EC₅₀=0.41 nM), ILT70144, ILT70142, ILT70052, and ILT70100 bound to human ILT7-expressing cells. […] The anti-ILT7 antibodies 7C7 (7C7 is described above in Example 1) and SBI33 (SBI33 refers to the anti-ILT7 antibody ILT7#33 provided in U.S. Published Application No. 2009/0280128) were used as positive controls.

cynomolgus ILT7 [4] = molecular target: T2, cynomolgus ILT7; test: flow cytometry on CynoILT7 CT-125 cells
Procedure: as §1
(§3) In order to determine the binding EC₅₀ of the variants on cells expressing cynomolgus ILT7, the antibodies were screened for binding on CynoILT7 CT-125 cells by flow cytometry. […] The graph in FIG. 3 represents the mean results from two independent experiments, and the table in FIG. 3 show the average EC₅₀.

cynomolgus ILT7 [5] = molecular target: T2, cynomolgus ILT7; test: flow cytometry on cells expressing cynomolgus ILT7 (CT-125 cells)
Procedure: as §1
The resultant IgG1s were tested to confirm that the sequence changes incorporated into ILT70080 and ILT70083 and had not adversely impacted the binding of the parent antibody to cells expressing human ILT7 (CT-550 cells) or cynomolgus ILT7 (CT-125 cells). The variants were screened for binding by flow cytometry. […]

[6] = molecular target: T1, HA-tagged human ILT7 on CT-550 cells; test: flow cytometry on human ILT7-expressing cells, left panel 'Human ILT7', table 'Ec50 (nM)'
Procedure: as §1

cynomolgus ILT7 [7] = molecular target: T2, cynomolgus ILT7; test: flow cytometry on cynomolgus ILT7-expressing cells, right panel 'Cyno ILT7', table 'Ec50 (nM)'
Procedure: as §1

[8] = molecular target: T3, recombinant human ILT7 protein (human, UniProt P59901 24-446, limits assumed); test: SPR on ProteOn, purified IgG on rILT7
T3 construct: Soluble recombinant protein used in ProteOn and BIAcore SPR; also called rILT7; Soluble Recombinant Human ILT7

cynomolgus ILT7 [9] = molecular target: T2, cynomolgus ILT7; test: FACS on CHO cells expressing recombinant cyno ILT7
human ILT7 [10] = molecular target: T4, human ILT7 (human, UniProt P59901 24-499); test: FACS on CHO cells expressing recombinant human ILT7
T4 construct: whole, on cells; also called LIRA4; LILRA4

[11] = molecular target: T1, HA-tagged human ILT7 on CT-550 cells; test: flow cytometry on CT-550 cells expressing human ILT7, anti-human IgG DyLight 649 detection; table 'Mean Ec50 (nM)', n = 2
Procedure: as §1, §2

cynomolgus ILT7 [12] = molecular target: T2, cynomolgus ILT7; test: flow cytometry on CynoILT7 CT-125 cells expressing cynomolgus ILT7, anti-human IgG DyLight 649 detection; table 'Mean Ec50 (nM)', n = 2
Procedure: as §1, §3

human ILT7 [13] = molecular target: T4, human ILT7; test: FMAT cell binding assay, CHO-K1 cells expressing human ILT7, IgG
Source text: (§4) This homogeneous assay assessed the binding of crude scFv supernatant samples or purified IgG to Chinese Hamster Ovary (CHO) cells expressing either human or cynomolgus ILT7 in a 384-well (Costar 3655) format. ScFv or Ab binding to cells was detected using a mouse anti-His/goat anti-mouse Alexafluor®-647 labelled antibody (Molecular Probes A21236) mix, or goat anti-human Alexafluor®-647 labelled antibody (Molecular Probes A21445) respectively. Plates were read on the Applied Biosystems Cellular Detection system 8200 reader. The Helium neon excitation laser was focused within 100 μm depth of the bottom of the well, scanning an area 1 mm². The cells settled at the bottom of the well, and upon laser excitation at 633 nm, those beads with fluorophore bound (where the local concentration of fluorophore is relatively high compared to unbound fluorophore) emitted a signal at 650-685 nm that was measured using photomultiplier tube-1 (PMT1). […] The presence of scFv or IgG samples binding to the cells at the bottom of the well caused an increase in Alexafluor-labeled detection antibody within the excitation depth. This was measured as an increase in fluorescence.
(§5) The cells used were CHO-Kl cells expressing either human or cynomolgus ILT7 that were cultured using standard tissue culture techniques. […]
(§6) Species cross-reactivity of anti-ILT7 antibodies was determined using FMAT binding assay. […]

cynomolgus ILT7 [14] = molecular target: T2, cynomolgus ILT7; test: FMAT cell binding assay, CHO-K1 cells expressing cynomolgus ILT7, IgG
Source text: as §4, §5, §6

[15] = molecular target: T1, HA-tagged human ILT7 on CT-550 cells; test: flow cytometry on CT-550 cells expressing human ILT7, anti-human IgG DyLight 649 detection; mean of two experiments
Procedure: as §1
In order to determine the binding EC50 of ILT70019, ILT70028, ILT70052, ILT70076, ILT70080, ILT70083, ILT70089, ILT70100, ILT70137, ILT70142 and ILT70144 on cells expressing human ILT7, the candidates were screened for binding on CT-550 cells by flow cytometry. […]

cynomolgus ILT7 [16] = molecular target: T2, cynomolgus ILT7; test: FACS on CHO cells expressing recombinant cyno ILT7; reference antibody of the comparison
human ILT7 [17] = molecular target: T4, human ILT7; test: FACS on CHO cells expressing recombinant human ILT7; reference antibody of the comparison

T2 sequence (P59901 other isoform, or with tags, fused parts or gaps limits assumed): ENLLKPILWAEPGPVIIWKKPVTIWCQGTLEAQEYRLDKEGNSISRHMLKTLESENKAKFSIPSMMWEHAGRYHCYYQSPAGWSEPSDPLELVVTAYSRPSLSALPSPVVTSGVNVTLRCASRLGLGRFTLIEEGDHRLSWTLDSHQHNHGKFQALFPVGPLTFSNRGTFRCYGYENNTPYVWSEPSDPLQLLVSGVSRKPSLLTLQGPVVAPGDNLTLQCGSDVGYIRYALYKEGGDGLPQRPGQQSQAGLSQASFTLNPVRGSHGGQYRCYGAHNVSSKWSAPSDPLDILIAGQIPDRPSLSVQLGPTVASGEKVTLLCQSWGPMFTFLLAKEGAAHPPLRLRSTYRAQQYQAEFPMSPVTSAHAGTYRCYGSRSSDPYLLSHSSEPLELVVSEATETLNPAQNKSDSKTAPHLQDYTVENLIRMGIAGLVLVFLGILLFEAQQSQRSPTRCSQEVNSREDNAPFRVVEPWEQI
T1 sequence (P59901 24-499): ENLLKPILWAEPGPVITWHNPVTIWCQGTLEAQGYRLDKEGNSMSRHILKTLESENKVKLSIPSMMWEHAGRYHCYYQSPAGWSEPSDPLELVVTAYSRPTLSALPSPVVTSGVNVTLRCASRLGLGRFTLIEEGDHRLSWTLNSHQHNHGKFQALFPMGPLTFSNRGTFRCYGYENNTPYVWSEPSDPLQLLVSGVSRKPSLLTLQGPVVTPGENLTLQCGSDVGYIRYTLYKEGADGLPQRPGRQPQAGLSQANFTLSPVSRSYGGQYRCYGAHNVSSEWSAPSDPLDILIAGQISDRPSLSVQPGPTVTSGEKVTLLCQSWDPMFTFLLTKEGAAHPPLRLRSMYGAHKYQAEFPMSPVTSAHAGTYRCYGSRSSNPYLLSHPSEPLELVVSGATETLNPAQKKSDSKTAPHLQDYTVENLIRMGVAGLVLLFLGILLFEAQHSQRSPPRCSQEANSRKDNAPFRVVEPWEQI
T4 sequence (P59901 24-499): as above
T3 sequence (P59901 24-446 limits assumed): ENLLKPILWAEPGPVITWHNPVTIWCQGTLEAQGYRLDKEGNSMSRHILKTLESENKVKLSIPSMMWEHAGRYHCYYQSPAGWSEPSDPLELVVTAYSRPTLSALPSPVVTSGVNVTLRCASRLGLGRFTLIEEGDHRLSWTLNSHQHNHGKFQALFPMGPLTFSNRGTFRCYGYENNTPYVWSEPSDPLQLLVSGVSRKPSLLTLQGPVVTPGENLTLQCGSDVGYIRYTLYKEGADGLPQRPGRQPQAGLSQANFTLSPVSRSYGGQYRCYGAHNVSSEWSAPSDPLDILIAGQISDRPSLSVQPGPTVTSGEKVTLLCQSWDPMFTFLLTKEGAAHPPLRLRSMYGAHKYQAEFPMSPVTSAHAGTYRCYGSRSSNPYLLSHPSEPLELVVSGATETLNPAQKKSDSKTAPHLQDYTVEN

B3: ILT70089 (antibody, V domains shown)
VH: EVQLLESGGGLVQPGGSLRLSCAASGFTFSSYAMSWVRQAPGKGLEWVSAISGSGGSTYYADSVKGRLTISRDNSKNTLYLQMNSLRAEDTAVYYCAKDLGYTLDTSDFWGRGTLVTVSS
VL: SYVLTQPPSASGSPGQGVTISCSGSSSNIGTNTVNWYLHVPGTAPKLLTYTNNQRPSGVQDRFSGSKSDTSASLAISGLQAEDEGDYYCATWDDSLNGLAFGGGTKLTVL
binding result (human ILT7 [13]): binds
binding result (cynomolgus ILT7 [14]): binds
binding result [15]: binds

B4: SBI28ch (antibody, V domains shown)
VH: QVQLQQSGAELVKPGASVKMSCKAFGYTFTTYPIEWMKQNHGKSLEWIGNFHPYNDDTKYNEKFKGKAKLTVEKSSSTVYLELSRLTSDDSAVYYCARGDDYGMDYWGQGTSVTVSS
VL: DIVMTQSQKFMSTSVGDRVSITCKASQNVRTAVAWYQQKPGQSPKALIYLASNRHTGVPDRFTGSGSGTDFTLTISNVQSEDLADYFCLQHWNYPFTFGSGTKLEIK
notes: also called chimeric SBI28; ILT7#28
binding result (cynomolgus ILT7 [16]): binds
binding result (human ILT7 [17]): binds

Results, then the binder that gave them:

ADCC EC50 [1]: 0.022 nM and 0.013 nM
ADCC EC50 (cynomolgus ILT7 [2]): 8 pM and 6 pM
EC50 [3]: 0.28 nM and 0.213 nM
EC50 (cynomolgus ILT7 [4]): 0.44 nM
EC50 (cynomolgus ILT7 [5]): 0.547 nM
EC50 [6]: 0.3 nM
EC50 (cynomolgus ILT7 [7]): 0.41 nM
B1: ILT70080 (antibody, V domains shown)
VH: QVQLVQSGAEVKAPGTSVKVSCKASGDSFRNYAVSWVRQAPGQGLEWMGAMMPSFGTREHSQQFNGRVTLSADESTSTAYLELSSLRYDDTAVYYCAGSRDYNAYHFWTGPPDFWGRGTLVTVSS
VL: SYELTQPPSVSVAPGKTAKISCGGDSVGSTSVHWYQQKPGQAPVMVMFYNSDRPSGIPERFSGSISGNTATLTISRVEAGDEADYYCQVWDTSSDHPEFGGGTKLTVL
notes: also called ITL70080

fold KD improvement over SBI28ch [8]: ~60 fold
fold better EC50 than SBI28ch (cynomolgus ILT7 [9]): 14 fold
fold better EC50 than SBI28ch (human ILT7 [10]): 2.2 fold
EC50 [11]: 1.3 nM
EC50 (cynomolgus ILT7 [12]): 8.34 nM
B2: 7C7 (antibody, V domains shown)
VH: EVQLVESGGGVVQPGRSLRLSCAASGFTFSIYPIEWVRQAPGQGLEWIGNFHPYNDDTKYNEKFKGRVTMTTDTSTSTVYMELSSLRSEDTAVYYCTRGDDYGLDYWGQGTLVTVSS
VL: NIQMTQSPSSLSASVGDRVTITCDASQNVRTAVAWYQQKPGKAPKRLIYLASNRHTGVPSRFSGSGSGTDFTLTISSLQSEDFATYYCLQHWNYPFTFGPGTKLEIK
notes: also called anti-ILT7 clone 7C7
